We go through one molecule from US6866997, “Nucleic acid binding proteins” (Gendaq Limited).

The series has as its target Zif268 DNA-binding domain (UniProt P08046 P08046:333-421). Briefly: apparent; text states optimised peptide Kd equals that of wild-type Zif268; curve only in FIG. 7.

B1: Zif268 consensus site (dsDNA)
DNA 1: GCGTGGGCG
DNA 2: CGCCCACGC
In the case of B1, the Kd amounted to 3 nM.
